{"source": "the supplement of paper PMC5998384", "key": {"[1]": {"system": "HeLa Kyoto", "test": "solubility in G1/S (NP-40 vs SDS abundance) (log2 ratio); higher = more soluble", "conditions": "cell cycle stage: G1/S"}, "[2]": {"system": "HeLa Kyoto", "test": "solubility change mitosis vs G1/S (difference of NP-40 vs SDS log2 ratios) (log2 ratio difference); higher = more soluble in mitosis"}}, "data": [{"substance": "MAADLNLEWISLPRSWTYGITRGGRVFFINEEAKSTTWLHPVTGEAVVTGHRRQSTDLPTGWEEAYTFEGARYYINHNERKVTCKHPVTGQPSQDNCIFVVNEQTVATMTSEEKKERPISMINEASNYNVTSDYAVHPMSPVGRTSRASKKVHNFGKRSNSIKRNPNAPVVRRGWLYKQDSTGMKLWKKRWFVLSDLCLFYYRDEKEEGILGSILLPSFQIALLTSEDHINRKYAFKAAHPNMRTYYFCTDTGKEMELWMKAMLDAALVQTEPVKRVDKITSENAPTKETNNIPNHRVLIKPEIQNNQKNKEMSKIEEKKALEAEKYGFQKDGQDRPLTKINSVKLNSLPSEYESGSACPAQTVHYRPINLSSSENKIVNVSLADLRGGNRPNTGPLYTEADRVIQRTNSMQQLEQWIKIQKGRGHEEETRGVISYQTLPRNMPSHRAQIMARYPEGYRTLPRNSKTRPESICSVTPSTHDKTLGPGAEEKRRSMRDDTMWQLYEWQQRQFYNKQSTLPRHSTLSSPKTMVNISDQTMHSIPTSPSHGSIAAYQGYSPQRTYRSEVSSPIQRGDVTIDRRHRAHHPKHVYVPDRRSVPAGLTLQSVSPQSLQGKTLSQDEGRGTLYKYRPEEVDIDAKLSRLCEQDKVVHALEEKLQQLHKEKYTLEQALLSASQEIEMHADNPAAIQTVVLQRDDLQNGLLSTCRELSRATAELERAWREYDKLEYDVTVTRNQMQEQLDHLGEVQTESAGIQRAQIQKELWRIQDVMEGLSKHKQQRGTTEIGMIGSKPFSTVKYKNEGPDYRLYKSEPELTTVAEVDESNGEEKSEPVSEIETSVVKGSHFPVGVVPPRAKSPTPESSTIASYVTLRKTKKMMDLRTERPRSAVEQLCLAESTRPRMTVEEQMERIRRHQQACLREKKKGLNVIGASDQSPLQSPSNLRDNPFRTTQTRRRDDKELDTAIRENDVKPDHETPATEIVQLKETEPQNVDFSKELKKTENISYEMLFEPEPNGVNSVEMMDKERNKDKMPEDVTFSPQDETQTANHKPEEHPEENTKNSVDEQEETVISYESTPEVSRGNQTMAVKSLSPSPESSASPVPSTQPQLTEGSHFMCV [PLEKHA5]", "values": [{"measurement": "solubility in G1/S (log2)", "setting": "[1]", "result": -0.128}, {"measurement": "solubility change mitosis (log2)", "setting": "[2]", "result": 0.0805}]}, {"substance": "MVSDEDELNLLVIVVDANPIWWGKQALKESQFTLSKCIDAVMVLGNSHLFMNRSNKLAVIASHIQESRFLYPGKNGRLGDFFGDPGNPPEFNPSGSKDGKYELLTSANEVIVEEIKDLMTKSDIKGQHTETLLAGSLAKALCYIHRMNKEVKDNQEMKSRILVIKAAEDSALQYMNFMNVIFAAQKQNILIDACVLDSDSGLLQQACDITGGLYLKVPQMPSLLQYLLWVFLPDQDQRSQLILPPPVHVDYRAACFCHRNLIEIGYVCSVCLSIFCNFSPICTTCETAFKISLPPVLKAKKKKLKVSA [GTF2H3]", "values": [{"measurement": "solubility in G1/S (log2)", "setting": "[1]", "result": -0.126}, {"measurement": "solubility change mitosis (log2)", "setting": "[2]", "result": 0.117}]}, {"substance": "MGCAPSIHISERLVAEDAPSPAAPPLSSGGPRLPQGQKTAALPRTRGAGLLESELRDGSGKKVAVADVQFGPMRFHQDQLQVLLVFTKEDNQCNGFCRACEKAGFKCTVTKEAQAVLACFLDKHHDIIIIDHRNPRQLDAEALCRSIRSSKLSENTVIVGVVRRVDREELSVMPFISAGFTRRYVENPNIMACYNELLQLEFGEVRSQLKLRACNSVFTALENSEDAIEITSEDRFIQYANPAFETTMGYQSGELIGKELGEVPINEKKADLLDTINSCIRIGKEWQGIYYAKKKNGDNIQQNVKIIPVIGQGGKIRHYVSIIRVCNGNNKAEKISECVQSDTHTDNQTGKHKDRRKGSLDVKAVASRATEVSSQRRHSSMARIHSMTIEAPITKVINIINAAQESSPMPVTEALDRVLEILRTTELYSPQFGAKDDDPHANDLVGGLMSDGLRRLSGNEYVLSTKNTQMVSSNIITPISLDDVPPRIARAMENEEYWDFDIFELEAATHNRPLIYLGLKMFARFGICEFLHCSESTLRSWLQIIEANYHSSNPYHNSTHSADVLHATAYFLSKERIKETLDPIDEVAALIAATIHDVDHPGRTNSFLCNAGSELAILYNDTAVLESHHAALAFQLTTGDDKCNIFKNMERNDYRTLRQGIIDMVLATEMTKHFEHVNKFVNSINKPLATLEENGETDKNQEVINTMLRTPENRTLIKRMLIKCADVSNPCRPLQYCIEWAARISEEYFSQTDEEKQQGLPVVMPVFDRNTCSIPKSQISFIDYFITDMFDAWDAFVDLPDLMQHLDNNFKYWKGLDEMKLRNLRPPPE [PDE8A]", "values": [{"measurement": "solubility in G1/S (log2)", "setting": "[1]", "result": -0.192}, {"measurement": "solubility change mitosis (log2)", "setting": "[2]", "result": -0.222}]}, {"substance": "MSYVFVNDSSQTNVPLLQACIDGDFNYSKRLLESGFDPNIRDSRGRTGLHLAAARGNVDICQLLHKFGADLLATDYQGNTALHLCGHVDTIQFLVSNGLKIDICNHQGATPLVLAKRRGVNKDVIRLLESLEEQEVKGFNRGTHSKLETMQTAESESAMESHSLLNPNLQQGEGVLSSFRTTWQEFVEDLGFWRVLLLIFVIALLSLGIAYYVSGVLPFVENQPELVH [ANKRD46]", "values": [{"measurement": "solubility in G1/S (log2)", "setting": "[1]", "result": 0.237}, {"measurement": "solubility change mitosis (log2)", "setting": "[2]", "result": 0.136}]}, {"substance": "MIVFGWAVFLASRSLGQGLLLTLEEHIAHFLGTGGAATTMGNSCICRDDSGTDDSVDTQQQQAENSAVPTADTRSQPRDPVRPPRRGRGPHEPRRKKQNVDGLVLDTLAVIRTLVDNDQEPPYSMITLHEMAETDEGWLDVVQSLIRVIPLEDPLGPAVITLLLDECPLPTKDALQKLTEILNLNGEVACQDSSHPAKHRNTSAVLGCLAEKLAGPASIGLLSPGILEYLLQCLKLQSHPTVMLFALIALEKFAQTSENKLTISESSISDRLVTLESWANDPDYLKRQVGFCAQWSLDNLFLKEGRQLTYEKVNLSSIRAMLNSNDVSEYLKISPHGLEARCDASSFESVRCTFCVDAGVWYYEVTVVTSGVMQIGWATRDSKFLNHEGYGIGDDEYSCAYDGCRQLIWYNARSKPHIHPCWKEGDTVGFLLDLNEKQMIFFLNGNQLPPEKQVFSSTVSGFFAAASFMSYQQCEFNFGAKPFKYPPSMKFSTFNDYAFLTAEEKIILPRHRRLALLKQVSIRENCCSLCCDEVADTQLKPCGHSDLCMDCALQLETCPLCRKEIVSRIRQISHIS [RSPRY1]", "values": [{"measurement": "solubility in G1/S (log2)", "setting": "[1]", "result": -0.235}, {"measurement": "solubility change mitosis (log2)", "setting": "[2]", "result": -0.00113}]}, {"substance": "MPVQAPQWTDFLSCPICTQTFDETIRKPISLGCGHTVCKMCLNKLHRKACPFDQTTINTDIELLPVNSALLQLVGAQVPEQQPITLCSGVEDTKHYEEAKKCVEELALYLKPLSSARGVGLNSTTQSVLSRPMQRKLVTLVHCQLVEEEGRIRAMRAARSLGERTVTELILQHQNPQQLSSNLWAAVRARGCQFLGPAMQEEALKLVLLALEDGSALSRKVLVLFVVQRLEPRFPQASKTSIGHVVQLLYRASCFKVTKRDEDSSLMQLKEEFRTYEALRREHDSQIVQIAMEAGLRIAPDQWSSLLYGDQSHKSHMQSIIDKLQTPASFAQSVQELTIALQRTGDPANLNRLRPHLELLANIDPSPDAPPPTWEQLENGLVAVRTVVHGLVDYIQNHSKKGADQQQPPQHSKYKTYMCRDMKQRGGCPRGASCTFAHSQEELEKFRKMNKRLVPRRPLSASLGQLNEVGLPSAAILPDEGAVDLPSRKPPALPNGIVSTGNTVTQLIPRGTDPSYDSSLKPGKIDHLSSSAPGSPPDLLESVPKSISALPVNPHSIPPRGPADLPPMPVTKPLQMVPRGSQLYPAQQTDVYYQDPRGAAPPFEPAPYQQGMYYTPPPQCVSRFVRPPPSAPEPAPPYLDHYPPYLQERVVNSQYGTQPQQYPPIYPSHYDGRRVYPAPSYTREEIFRESPIPIEIPPAAVPSYVPESRERYQQIESYYPVAPHPTQIRPSYLREPPYSRLPPPPQPHPSLDELHRRRKEIMAQLEERKVISPPPFAPSPTLPPTFHPEEFLDEDLKVAGKYKGNDYSQYSPWSCDTIGSYIGTKDAKPKDVVAAGSVEMMNVESKGMRDQRLDLQRRAAETSDDDLIPFGDRPTVSRFGAISRTSKTIYQGAGPMQAMAPQGAPTKSINISDYSPYGTHGGWGASPYSPHQNIPSQGHFSERERISMSEVASHGKPLPSAEREQLRLELQQLNHQISQQTQLRGLEAVSNRLVLQREANTLAGQSQPPPPPPPKWPGMISSEQLSLELHQVEREIGKRTRELSMENQCSLDMKSKLNTSKQAENGQPEPQNKVPAEDLTLTFSDVPNGSALTQENISLLSNKTSSLNLSEDPEGGGDNNDSQRSGVTPSSAP [RC3H1]", "values": [{"measurement": "solubility in G1/S (log2)", "setting": "[1]", "result": 0.308}, {"measurement": "solubility change mitosis (log2)", "setting": "[2]", "result": -0.0375}]}, {"substance": "MATPGSEPQPFVPALSVATLHPLHHPHHHHHHHQHHGGTGAPGGAGGGGGGSGGFNLPLNRGLERALEEAANSGGLNLSARKLKEFPRTAAPGHDLSDTVQADLSKNRLVEVPMELCHFVSLEILNLYHNCIRVIPEAIVNLQMLTYLNLSRNQLSALPACLCGLPLKVLIASNNKLGSLPEEIGQLKQLMELDVSCNEITALPQQIGQLKSLRELNVRRNYLKVLPQELVDLSLVKFDFSCNKVLVIPICFREMKQLQVLLLENNPLQSPPAQICTKGKVHIFKYLSIQACQIKTADSLYLHTMERPHLHQHVEDGKKDSDSGVGSDNGDKRLSATEPSDEDTVSLNVPMSNIMEEEQIIKEDSCHRLSPVKGEFHQEFQPEPSLLGDSTNSGEERDQFTDRADGLHSEFMNYKARAEDCEELLRIEEDVHWQTEGIISSSKDQDMDIAMIEQLREAVDLLQDPNGLSTDITERSVLNLYPMGSAEALELQDSALNGQIQLETSPVCEVQSDLTLQSNGSQYSPNEIRENSPAVSPTTNSTAPFGLKPRSVFLRPQRNLESIDPQFTIRRKMEQMREEKELVEQLRESIEMRLKVSLHEDLGAALMDGVVLCHLVNHIRPRSVASIHVPSPAVPKLSMAKCRRNVENFLEACRKLGVPEADLCSPCDILQLDFRHIRKTVDTLLALGEKAPPPTSALRSRDLIGFCLVHILFIVLVYITYHWNALSA [LRCH1]", "values": [{"measurement": "solubility in G1/S (log2)", "setting": "[1]", "result": -0.0599}, {"measurement": "solubility change mitosis (log2)", "setting": "[2]", "result": -0.186}]}, {"substance": "MAAPVRLGRKRPLPACPNPLFVRWLTEWRDEATRSRRRTRFVFQKALRSLRRYPLPLRSGKEAKILQHFGDGLCRMLDERLQRHRTSGGDHAPDSPSGENSPAPQGRLAEVQDSSMPVPAQPKAGGSGSYWPARHSGARVILLVLYREHLNPNGHHFLTKEELLQRCAQKSPRVAPGSARPWPALRSLLHRNLVLRTHQPARYSLTPEGLELAQKLAESEGLSLLNVGIGPKEPPGEETAVPGAASAELASEAGVQQQPLELRPGEYRVLLCVDIGETRGGGHRPELLRELQRLHVTHTVRKLHVGDFVWVAQETNPRDPANPGELVLDHIVERKRLDDLCSSIIDGRFREQKFRLKRCGLERRVYLVEEHGSVHNLSLPESTLLQAVTNTQVIDGFFVKRTADIKESAAYLALLTRGLQRLYQGHTLRSRPWGTPGNPESGAMTSPNPLCSLLTFSDFNAGAIKNKAQSVREVFARQLMQVRGVSGEKAAALVDRYSTPASLLAAYDACATPKEQETLLSTIKCGRLQRNLGPALSRTLSQLYCSYGPLT [MUS81]", "values": [{"measurement": "solubility in G1/S (log2)", "setting": "[1]", "result": -0.347}, {"measurement": "solubility change mitosis (log2)", "setting": "[2]", "result": 0.243}]}, {"substance": "MAST2", "values": [{"measurement": "solubility in G1/S (log2)", "setting": "[1]", "result": 0.087}, {"measurement": "solubility change mitosis (log2)", "setting": "[2]", "result": -0.172}]}, {"substance": "MGSILSRRIAGVEDIDIQANSAYRYPPKSGNYFASHFFMGGEKFDTPHPEGYLFGENMDLNFLGSRPVQFPYVTPAPHEPVKTLRSLVNIRKDSLRLVRYKDDADSPTEDGDKPRVLYSLEFTFDADARVAITIYCQASEEFLNGRAVYSPKSPSLQSETVHYKRGVSQQFSLPSFKIDFSEWKDDELNFDLDRGVFPVVIQAVVDEGDVVEVTGHAHVLLAAFEKHMDGSFSVKPLKQKQIVDRVSYLLQEIYGIENKNNQETKPSDDENSDNSNECVVCLSDLRDTLILPCRHLCLCTSCADTLRYQANNCPICRLPFRALLQIRAVRKKPGALSPVSFSPVLAQSLEHDEHSCPFKKSKPHPASLASKKPKRETNSDSVPPGYEPISLLEALNGLRAVSPAIPSAPLYEEITYSGISDGLSQASCPLAAIDHILDSSRQKGRPQSKAPDSTLRSPSSPIHEEDEEKLSEDVDAPPPLGGAELALRESSSPESFITEEVDESSSPQQGTRAASIENVLQDSSPEHCGRGPPADIYLPALGPDSCSVGIDE [MGRN1]", "values": [{"measurement": "solubility in G1/S (log2)", "setting": "[1]", "result": -0.00834}, {"measurement": "solubility change mitosis (log2)", "setting": "[2]", "result": 0.156}]}]}
